In patent US20090004680A1:

Target: Mouse synaptosomes (BoNT/A acceptor on a mouse synaptosome preparation)

## Active BoNT/A (botulinum neurotoxin type A) (from UniProt P0DPI0 2-1296)
  maximum percent inhibition: 78%
